Laboratory results from patent publication US20160333110A1 (CHIOME BIOSCIENCE, published 2016).

Columns and labels:
[1] = biological target: T1, human TROP-1/EpCAM protein transiently expressed in CHO-K1 cells (human, UniProt P16422 24-314); assay: FACS on CHO-K1 cells transiently expressing human EpCAM/TROP-1
T1 construct: whole, on cells; also called human EpCAM/TROP-1; hEpCAM; not shown: C-terminal myc/His tag from pcDNA3.1-hEpCAM-myc/His
T1 sequence (looked up): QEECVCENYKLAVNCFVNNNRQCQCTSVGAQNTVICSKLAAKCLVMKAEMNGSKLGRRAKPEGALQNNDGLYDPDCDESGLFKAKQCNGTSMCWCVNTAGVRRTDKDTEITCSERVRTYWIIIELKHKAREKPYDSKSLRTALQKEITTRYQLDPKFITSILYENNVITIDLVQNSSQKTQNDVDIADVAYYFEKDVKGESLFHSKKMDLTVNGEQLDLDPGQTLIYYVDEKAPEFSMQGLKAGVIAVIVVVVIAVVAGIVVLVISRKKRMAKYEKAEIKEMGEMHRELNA
Description: Specifically, each of an expression vector (mouse TROP-2-pcDNA3.1(+), furnished by the Institute of Molecular and Cellular Biosciences, the University of Tokyo) comprising the full-length cDNA of a mouse TROP-2 gene (GenBank accession No. NM_020047, Y08830), and an expression vector (pcDNA3.1-hEpCAM-myc/His) comprising the full-length cDNA of a human TROP-1/EpCAM gene (GenBank accession No. NM_002354), was transiently introduced into CHO-K1 cells, using Lipofectamine2000 reagent (Invitrogen). Thereafter, 24 to 48 hours later, the cells were removed from a culture dish by treating them with trypsin, and a cell suspension was then prepared. The thus prepared cell suspension was successively reacted with the produced anti-hTROP-2 monoclonal antibody (0.1 μg) and with PE-labeled anti-mouse IgG, and it was then analyzed by FACSCalibur.

[2] = biological target: T2, recombinant protein of the hTROP-2 extracellular region (human, UniProt P09758 27-263); assay: antigen-coated ELISA, plate coated with 0.5 µg/ml hTROP-2 extracellular region
T2 construct: produced with baculovirus, purified on Ni Sepharose; also called hTROP-2 EC; hTROP-2-EC-His; not shown: C-terminal myc-His tag from pcDNA4/myc-His A
T2 sequence: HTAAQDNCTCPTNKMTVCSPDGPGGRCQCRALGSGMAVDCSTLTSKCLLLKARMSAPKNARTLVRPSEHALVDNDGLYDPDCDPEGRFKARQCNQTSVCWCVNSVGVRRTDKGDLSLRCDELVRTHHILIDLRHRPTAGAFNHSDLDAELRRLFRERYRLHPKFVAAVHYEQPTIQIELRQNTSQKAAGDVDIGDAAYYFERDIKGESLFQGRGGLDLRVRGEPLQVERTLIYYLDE
Procedure: Furthermore, antigen affinity was also examined by an ELISA method. ELISA was carried out using an ELISA plate which was coated with the recombinant protein of the hTROP-2 extracellular region as described in Example 3. Specifically, a 96-well plate (BD FALCON) was coated with a 50 μl/well recombinant protein of a hTROP-2 extracellular region that had been diluted with PBS to 0.5 μg/ml (at 4° C. overnight). Thereafter, the resultant was washed with a washing buffer (PBS containing 0.05% Tween 20), and a blocking buffer (PBS containing 2% skim milk and 0.05% Tween 20) was then added thereto (200 μl/well) to block it (at room temperature for 1 hour). The resultant was washed with a washing buffer. […] The obtained dilution samples were each added in an amount of 50 μl/well to the above-described ELISA plate (at room temperature for 2 hours). […] After the mixture had been washed with a washing buffer, a TMB (3,3′,5,5′-tetramethylbenzidine: SIGMA) substrate solution was added (50 μl/well) to the resultant to carry out a color reaction. Then, 1 M sulfuric acid (25 μl/well) was added to the reaction product to terminate the reaction. Using Microplate reader Model 550 (BioRad), an absorbance at 450 nm was measured with an absorbance at 655 nm used as a reference.

[3] = biological target: T3, human TROP-2 (hTROP-2) endogenously expressed on the cell surface of human cancer cell lines (human, UniProt P09758 27-323); assay: FACS on PK-59 cells, 0.1 µg antibody
T3 construct: also called TACSTD2; PK-59 cells
T3 sequence: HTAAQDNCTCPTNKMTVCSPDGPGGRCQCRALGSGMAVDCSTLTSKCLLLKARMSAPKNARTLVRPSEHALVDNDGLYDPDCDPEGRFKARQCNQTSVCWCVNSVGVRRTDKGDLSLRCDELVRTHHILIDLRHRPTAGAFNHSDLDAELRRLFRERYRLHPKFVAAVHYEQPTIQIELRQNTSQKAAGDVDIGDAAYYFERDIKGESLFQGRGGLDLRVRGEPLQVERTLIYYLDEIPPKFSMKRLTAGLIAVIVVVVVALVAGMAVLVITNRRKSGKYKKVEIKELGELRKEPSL
Procedure: (§1) Cancer cells were removed from a culture dish by a trypsin treatment, and a cell suspension was then prepared (cell density: 2×10⁶ cells/mL). An anti-hTROP-2 monoclonal antibody (0.1 μg) was added to 100 μL of the cell suspension, and they were then reacted at 4° C. for 20 minutes. The reaction solution was washed with PBS, and it was then reacted with PE-labeled anti-mouse IgG (BD Biosciences Pharmingen) (0.1 μg) (at 4° C. for 30 minutes). Thereafter, the resultant was analyzed by FACSCalibur (Becton, Dickinson and Company).
(§2) Subsequently, the reactivity of the generated anti-hTROP-2 monoclonal antibodies with human cancer cell lines (in which an hTROP-2 protein was endogenously expressed on the cell surface) was examined by FACS analysis.

[4] = biological target: T3, human TROP-2 (hTROP-2) endogenously …; assay: FACS on BxPC-3 cells, 0.1 µg antibody
Procedure: as §1, §2

B1: anti-hTROP-2 monoclonal antibody clone T6-16 (antibody, mouse IgG2a, V domains shown)
VH: EVQLQQSGPELVKPGASVKISCKASGYTFTDYNMHWVKQSHGKNLEWIGYIYPYNGGTGYNQRFKSRATMTVDKSSSTAYMELRSLTSDDSAVYYCAREDYGSSPSYAMDYWGQGTSVIVSS
VL: DVVMTQTPLSLPVSLGDQASISCRSSQSLVHGNGNTYLHWYLQKPGQSPKLLIYKVSNRFSGVPDRFSGSGSGTDFTLKISRVEAEDLGVYFCSQTTHVPTFGSGTKLEIK
notes: mouse IgG2a, hybridoma FERM BP-11346; also called T6-16 antibody
- binding result [1]: no binding (tested: 0.1 µg antibody)
- EC50 [2]: 0.03 µg/mL
- mean fluorescence intensity, times that with PE-labeled anti-mouse IgG alone [3]: 59 times
- mean fluorescence intensity, times that with PE-labeled anti-mouse IgG alone [4]: 25 times

B2: anti-hTROP-2 monoclonal antibody clone K5-70 (antibody, mouse IgG2a, V domains shown)
VH: QVQLQQPGAELVRPGASVKLSCKASGYTFTIYWINWVKQRPGQGLEWIGNIYPSDSYTNYNQKFKDKATLTVDKSSSTAYMQLSSPTSEDSAVYYCTRTSMADYWGQGTTLTVSS
VL: DILLTQSPAILSVSPGERVSFSCRASQSIGTSIHWYQQRTNGSPRLLIKYASESISGIPSRFSGSGSGTDFTLSINSVESEDIADYYCQQSNSWPFTFGSGTKLEIK
notes: mouse IgG2a, hybridoma FERM BP-11251; also called K5-70 antibody; mouse K5-70 antibody
- binding result [1]: no binding (tested: 0.1 µg antibody)
- EC50 [2]: 0.027 µg/mL
- mean fluorescence intensity, times that with PE-labeled anti-mouse IgG alone [3]: 44 times
- mean fluorescence intensity, times that with PE-labeled anti-mouse IgG alone [4]: 45 times
